Data from paper PMC3334931, “Characterization of the Single Stranded DNA Binding Protein SsbB Encoded in the Gonoccocal Genetic Island” (PLoS ONE, 2012).

B1: 32P-dT75 (ssDNA)
DNA: TTTTTTTTTTTTTTTTTTTTTTTTTTTTTTTTTTTTTTTTTTTTTTTTTTTTTTTTTTTTTTTTTTTTTTTTTTT
B2: dT70 (ssDNA)
DNA: TTTTTTTTTTTTTTTTTTTTTTTTTTTTTTTTTTTTTTTTTTTTTTTTTTTTTTTTTTTTTTTTTTTTTT
B3: native SsbB (single stranded DNA binding protein SsbB encoded in the Gonococcal Genetic Island of Neisseria gonorrhoeae) (natural protein, UniProt Q5EP75 1-143, looked up)
chain: MSVQLFVRGNLGAEFNLRPVASPKNDEASIVLNFSVASPNFKRNAEGKSEVVSTEWISCEYWNRDAAHLHKILQVGMPVFVTGEERYESYTNRDGIEVRVRKLRVQDVFIVPTERVEAIKLRPKREQSQDNNHVEDADDDIPL
notes: expressed as the native (untagged) protein; also called WT; GGI SSB; source: E. coli C43 (DE3), purified (Hi-Trap Q, DNA-cellulose, Superdex SD200)
B4: OneSTrEP-tagged SsbB (natural protein, Neisseria gonorrhoeae, UniProt Q5EP75 1-143, looked up)
chain: MSVQLFVRGNLGAEFNLRPVASPKNDEASIVLNFSVASPNFKRNAEGKSEVVSTEWISCEYWNRDAAHLHKILQVGMPVFVTGEERYESYTNRDGIEVRVRKLRVQDVFIVPTERVEAIKLRPKREQSQDNNHVEDADDDIPL
notes: source: E. coli C43 (DE3), purified (Strep-tactin Sepharose, Hi-Trap Q, Superdex SD200); not shown: OneSTrEP tag, N-terminal, kept
B5: His-tagged SsbB (natural protein, Neisseria gonorrhoeae, UniProt Q5EP75 1-143, looked up)
chain: MSVQLFVRGNLGAEFNLRPVASPKNDEASIVLNFSVASPNFKRNAEGKSEVVSTEWISCEYWNRDAAHLHKILQVGMPVFVTGEERYESYTNRDGIEVRVRKLRVQDVFIVPTERVEAIKLRPKREQSQDNNHVEDADDDIPL
notes: also called N- His- tagged SsbB; source: E. coli C43 (DE3), purified (Hi-Trap Chelating Ni, Hi-Trap Q, Superdex SD200); not shown: His tag, N-terminal, kept

Experiments:
SsbB (native) [1] = target: T1, SsbB (native) (Neisseria gonorrhoeae MS11, UniProt Q5EP75 1-143); experiment: EMSA; SBA buffer; (SsbB)4 concentration; one and two tetramer complexes; EMSA: SBA buffer (10 mM NaOH, 2 mM EDTA, boric acid to pH 7.5), optional 10 mM MgCl2 and/or NaCl up to 500 mM, 4 C 15 min; AFM: 20 mM Tris pH 7.5, 150 mM NaCl; details: protein: recombinant; tags: none; chain copies: 4; label: 5' 32P
T1 sequence: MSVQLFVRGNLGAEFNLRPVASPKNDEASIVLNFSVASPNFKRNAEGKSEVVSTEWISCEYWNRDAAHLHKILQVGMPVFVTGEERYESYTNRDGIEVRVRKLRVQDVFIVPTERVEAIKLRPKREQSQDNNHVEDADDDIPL

SsbB (native) [2] = target: T1, SsbB (native); experiment: EMSA; stoichiometric at 8 nM DNA; 1 tetramer per oligo; Cy3 raises affinity at least 10-fold; EMSA: SBA buffer (10 mM NaOH, 2 mM EDTA, boric acid to pH 7.5), optional 10 mM MgCl2 and/or NaCl up to 500 mM, 4 C 15 min; AFM: 20 mM Tris pH 7.5, 150 mM NaCl; details: protein: recombinant; tags: none; chain copies: 4; label: 5' Cy3
SsbB (native) [3] = target: T1, SsbB (native); experiment: tryptophan fluorescence titration; biphasic; 1 oligo per tetramer high affinity, second much weaker; EMSA: SBA buffer (10 mM NaOH, 2 mM EDTA, boric acid to pH 7.5), optional 10 mM MgCl2 and/or NaCl up to 500 mM, 4 C 15 min; AFM: 20 mM Tris pH 7.5, 150 mM NaCl; details: protein: recombinant; tags: none; chain copies: 4
SsbB (native) [4] = target: T1, SsbB (native); experiment: EMSA (Coomassie); 1 uM tetramer, 0.25 uM oligo; minimal frame for two tetramers; EMSA: SBA buffer (10 mM NaOH, 2 mM EDTA, boric acid to pH 7.5), optional 10 mM MgCl2 and/or NaCl up to 500 mM, 4 C 15 min; AFM: 20 mM Tris pH 7.5, 150 mM NaCl; details: protein: recombinant; tags: none; chain copies: 4
[5] = target: the molecule itself; experiment: SEC; gel filtration chromatography of the purified proteins; single peaks; data not shown
SsbB (native) [6] = target: T1, SsbB (native); experiment: EMSA (Coomassie); 1 uM tetramer, 5 uM oligo; minimal frame for one tetramer; EMSA: SBA buffer (10 mM NaOH, 2 mM EDTA, boric acid to pH 7.5), optional 10 mM MgCl2 and/or NaCl up to 500 mM, 4 C 15 min; AFM: 20 mM Tris pH 7.5, 150 mM NaCl; details: protein: recombinant; tags: none; chain copies: 4

| Binder | binding result (SsbB (native) [3]) | stoichiometry N [5] | also measured |
| --- | --- | --- | --- |
| B1 |  |  | Kd (SsbB (native) [1]): ~100 nM |
| TTTTTTTTTTTTTTTTTTTTTTTTTTTTTTTTTTT (ssDNA) [Cy3-dT35] |  |  | binding result (SsbB (native) [2]): binds |
| TTTTTTTTTTTTTTTTTTTTTTTTTTTTTTTTTTT (ssDNA) [dT35] | binds |  |  |
| TTTTTTTTTTTTTTTTTTTTTTTTTTTTTTTTTTTTTTTTTTTTT (ssDNA) [dT45] | binds |  |  |
| B2 |  |  | binding result (SsbB (native) [4]): binds |
| B3 |  | 4 |  |
| B4 |  | 4 |  |
| B5 |  | 4 |  |
| TTTTTTTTTTTTTTTTTTTTTTTTT (ssDNA) [dT25] | binds |  |  |
| TTTTTTTTTTTTTTT (ssDNA) [dT15] |  |  | binding result (SsbB (native) [6]): binds |
